Substrate in the data set: N[C@@H](Cc1ccc(Oc2cc(I)c(O)c(I)c2)c(I)c1)C(=O)O
Description: cells, lysate or membranes. The note with it: other: net MCT8 transport, Michaelis-Menten analysis.

Among the data in patent US20050159352A1, “Use of monocarboxylate transporter protein for thyroid hormone transport” (priority 2002, published 2005) are Km values, retold here.

Broadly, the Km is the substrate concentration at which the rate is half of its maximum.

Description: Apparent Km values were calculated by fitting the plot of uptake rate (v) versus ligand concentration (5) to the Michaelis Menten equation: v=Vmax/(1+Km/S), wherein Vmax is the maximum uptake rate, and Km the Michaelis constant. Calculations were performed using the Slide Write Plus program version 5.01 (Advanced Graphics Software).

B1: MCT8 (Rattus norvegicus; G227D/I169T/S199P/T171I) (protein)
chain: MALPSPASEEAEGPCQEANQEYQEPVCSPVPEPEPEPEPEPEPEPEPVPVPPPEPQPEPEPQPLPDPAPLPVLGFEAEPVQEPEPTPTVETRGTARGFQPPEGGFGWIVVFAATWCNGSIFGIHNSVGILYSMLLEEEKEKNRQVEFQAAWVGALAMGMIFFCSPIVSTFIDRLGCRITATTGAAVAFIGLHTSSFTSPLSLRYFTYGILFGCGCSFAFQPSLVILDHYFQRRLGLANGVVSAGSSIFSMSFPFLIKMLGDRIKLAQTFQVLSTFMFVLTLLSLTYRPLLPSSQDTPSKRGAHTLRQRFLVQFRKYFNMRVFRQRTYRIWAFGIAAAALGYFVPYVHLMKYVEDKFKEIKETWVLLVCIGATSGLGRLVSGHISDSIPGLKKIYLQVLSFLLLGLMSMMIPLCRDFGGLIVVCLFLGLCDGFFITIMAPIAFELVGPMQASQAIGYLLGMMALPMIAGPPIAGLLRNCFGNYHVAFYFAGVPPIIGAVILFFVPLMHQRMFKKEQRESSKDKMLSHDPDPNGELLPGSPTPEEPI
As for B1, the Km was 2.2 µM.
